Target: FGFR2b
Assay: cell-based or functional assay

cell proliferation promoting activity on BaF3 cells forced to express the receptor (in the presence of heparin), relative to FGF1 (fold of the activity of FGF1): 0.001
Substance: basic fibroblast growth factor (FGF2) (from UniProt P09038 143-288) (ligand)

— patent US20100286042A1
